Data: patent publication US20150064204A1 (Amgen, published 2015)
Positions count from the first letter of the chain named.

T1: human GITR (Glucocorticoid-induced TNFR-related gene, TNFRSF18) (human, UniProt Q9Y5U5 26-241)
T1 sequence: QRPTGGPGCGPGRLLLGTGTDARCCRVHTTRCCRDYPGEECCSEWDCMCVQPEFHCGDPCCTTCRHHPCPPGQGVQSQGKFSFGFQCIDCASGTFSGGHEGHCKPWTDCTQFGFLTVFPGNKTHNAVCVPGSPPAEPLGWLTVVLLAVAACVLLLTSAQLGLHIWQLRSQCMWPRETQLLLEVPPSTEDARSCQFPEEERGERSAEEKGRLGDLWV

B1: 48A9v1 (antibody, human IgG1, kappa, V domains shown)
VH: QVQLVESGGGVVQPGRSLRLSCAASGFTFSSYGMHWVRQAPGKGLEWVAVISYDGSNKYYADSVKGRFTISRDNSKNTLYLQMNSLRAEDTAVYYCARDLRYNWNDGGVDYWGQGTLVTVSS
VL: DIQMTQSPSSLSASVGDRVIITCRASQSISSYLHWYKQKPGKAPKLLIYGASRLQSGVPSRFSGSGSGTDFTLTISSLQPEDFATYYCQQSSSTPLTFGGGTKVEIKR
notes: tied to 48A9v1 by Ab24 / SS-12513; also called Ab24; SS-12513
B2: 44C1v1 (antibody, human IgG1, lambda, V domains shown)
VH: QVQLVESGGGVVQPGRSLRLSCAASGFTLSSYGMHWVRQAPGKGLEWVAVIWYDGSNKYYADSVKGRFTISRDNSKNTLYLQMNSLRAEDTAVYYCARRGTVTTPDFDYWGQGTLVTVSS
VL: QSALTQPASVSGSPGQSITISCTGTSSDVGTYNLVSWYQQHPGKAPKLMIYEVSKRPSGVSNRFSGSKSGNTASLTISGLQAEDEADYYCASYAGFSTWVFGGGTKLTVLG
notes: tied to 44C1v1 by Ab20 / SS-12514; also called Ab20; SS-12514
B3: 49E2v1 (antibody, human IgG1, lambda, V domains shown)
VH: QVQLVESGGGVVQPGRSLRLSCAASGFTFSSYGMHWVRQAPGKGLEWVAVIWSDGNNKYYEDSVKGRFTISRDSSKNTLFLQMNSLRAEDTAVYYCARDTATPFDYWGQGTLVTVSS
VL: B2 VL with T31I, Y51H, F96I
notes: tied to 49E2v1 by Ab23 / SS-12516; also called Ab23; SS-12516
B4: 45A8v1 (antibody, human IgG1, lambda, V domains shown)
VH: QVQLVESGGGVVQPGRSLRLSCAASGFTFSSYGMHWVRQAPGKGLEWVAVIWHDGSNKYYADSVKGRFTISKDNSKNTLYLQMNSLRAEDTAVYYCAREYGGNFDYWGQGTLVTVSS
VL: B2 VL with V60I, F96Y, G111R
notes: tied to 45A8v1 by Ab21 / SS-12515; also called Ab21; SS-12515
B5: 5H7 (antibody, human IgG1, kappa, V domains shown)
VH: QVQLQESGPGLVKPSQTLSLTCTVSGGSISSGGYFWSWIRQHPGKGLEWIGYIYYSGTTYYNPSLKSRVTISIDTSKNHFSLKLSSVTAADTAVYYCARDLFYYDSSGPRGFDPWGQGTLVTVSS
VL: EIVLTQSPGTLSLSPGERATLSCRASQTVSSNYLAWYQQKPGQAPRLLIYGSSTRATGIPDRFSGSGSGTDFTLTISRLEPEDFAVYYCQQYDSSPWTFGQGTKVEIKR
notes: Fully human parental antibody; also called Ab17; SS-10943
B6: 34G4 (antibody, human IgG1, kappa, V domains shown)
VH: QVQLVESGGGVVQPGRSLRLSCAASGFTFSSYGMHWVRQAPGKGLEWVAVIWYEGSNKYYADSVKGRFTISRDNSKNTLYLQMNSLRAEDTAVYYCARGGQLGYYYYYGMDVWGQGTTVTVSS
VL: DIQMTQSPSSLSASVGDRVTITCRASQGIRNDLGWYQQKPGKAPKRLIYDASSLQSGVPSRFSGSGSGTDFTLTISSLQPEDFATYYCLQLNSYPWTFGQGTKVEIKR
notes: Fully human parental antibody; also called Ab4; SS-12415
B7: 46E11 (antibody, human IgG1, kappa, V domains shown)
VH: QVQLVESGGGVVQPGRSLRLSCAASGFTFSSYGMHWVRQAPGKGLEWVAVIWYAGSNKYYADSVKGRFTISRDNSKNTLYLQMNSLRAEDTAVYYCARGDILTGYSLYYGMDVWGQGTTVTVSS
VL: B6 VL with D50A, T69A, D70E, L91H
notes: Fully human parental antibody; also called Ab11; SS-12421
B8: 9H6 (antibody, human IgG1, kappa, V domains shown)
VH: B6 VH with A23V, V37I, Q101R, Y104K, Y105D, Y108S
VL: B6 VL with K45N, D50A, A51T, D70E, L91H, S93T
notes: Fully human parental antibody; also called Ab19; SS-10945
B9: 41E11 (antibody, human IgG1, kappa, V domains shown)
VH: B6 VH with L4V, H35Y, K65R, V93L, Y104K, Y105D, Y108S
VL: B6 VL with G28V, D50A, D70E, L91H, W96L, Q100G
notes: Fully human parental antibody; also called Ab6; SS-12417
B10: 33F6 (antibody, human IgG1, kappa, V domains shown)
VH: B6 VH with S31N, E54V, Q101E, G103R, Y104L
VL: B6 VL with D50A, D70E, I75V
notes: Fully human parental antibody; also called Ab3; SS-12414
B11: 42A11 (antibody, human IgG1, kappa, V domains shown)
VH: B6 VH with Y108S
VL: B6 VL with D82E, L91H, S93N
notes: Fully human parental antibody; also called Ab8; SS-12418
B12: 33C9 (antibody, human IgG1, kappa, V domains shown)
VH: B6 VH with L4V, A49S, Q101L
VL: B6 VL with D70E, L91H, N92H
notes: Fully human parental antibody; also called Ab2; SS-12413
B13: 48H12 (antibody, human IgG1, kappa, V domains shown)
VH: B6 VH with E54A, L79V, G103A, Y104L
VL: B6 VL with D50A, D70E, L91H, S93N
notes: Fully human parental antibody; also called Ab12; SS-12422
B14: 7A10 (antibody, human IgG1, kappa, V domains shown)
VH: B6 VH with V48M, E54V, R87S, Q101E, Y104R, Y105D, Y108S
VL: B6 VL with D50A, D70E, L89Q, L91H
notes: Fully human parental antibody; also called Ab18; SS-10944
B15: 41G5 (antibody, human IgG1, kappa, V domains shown)
VH: B6 VH with E54P, Q101E, Y104R
VL: B6 VL with I21V, D50A, D70E, L91H, S93N, E105D
notes: Fully human parental antibody; also called Ab7; SS-12428
B16: 35B10 (antibody, human IgG1, kappa, V domains shown)
VH: B6 VH with E54A, Q101E, G103S, Y104F
VL: B6 VL with D50A, S53T, D70E, L91H, S93N
notes: Fully human parental antibody; also called Ab5; SS-12416
B17: 1D7 (antibody, human IgG1, kappa, V domains shown)
VH: B6 VH with A49T, Y104K
VL: B6 VL with D70E, L91H, S93N
notes: Fully human parental antibody; also called Ab1; SS-10942
B18: 48H7 (antibody, human IgG1, kappa, V domains shown)
VH: B6 VH with H35Y, Y95F, Q101E, Y104R, Y105D, Y108S
VL: B6 VL with G28V, D50A, D70E, L91H, W96I, Q100G
notes: Fully human parental antibody; also called Ab13; SS-12423
B19: 49D9v1 (antibody, human IgG1, kappa, V domains shown)
VH: B6 VH with V2M, R16G, E54A, Q101R, Y104F
VL: B6 VL with D50A, D70E
notes: tied to 49D9v1 by Ab22 / SS-12562; also called Ab22; SS-12562

The binders below were run against T1, human GITR (Glucocorticoid-induced …) (assay: cell-based or functional assay).

IFNg Secretion (Fold over CD3) | IFNg Secretion EC50 | Binder
0.9 fold over CD3 | 0.0791 µg/mL | B1
1.6 fold over CD3 | 0.0114 µg/mL | B2
1.9 fold over CD3 | 0.0022 µg/mL | B3
1.8 fold over CD3 | 0.0007 µg/mL | B4
2.9 fold over CD3 | 0.0113 µg/mL | B5
1.9 fold over CD3 | 0.0002 µg/mL | B6
2.2 fold over CD3 | 0.0009 µg/mL | B7
1.9 fold over CD3 | 0.0005 µg/mL | B8
2 fold over CD3 | 0.0003 µg/mL | B9
2.8 fold over CD3 | 0.0004 µg/mL | B10
1.9 fold over CD3 | 0.0012 µg/mL | B11
2.7 fold over CD3 | 0.001 µg/mL | B12
1.2 fold over CD3 | 0.0008 µg/mL | B13
2.2 fold over CD3 | 0.0002 µg/mL | B14
1.9 fold over CD3 | 0.0008 µg/mL | B15
1.9 fold over CD3 | 0.0005 µg/mL | B16
2.2 fold over CD3 | 0.0008 µg/mL | B17
1.2 fold over CD3 | 0.0006 µg/mL | B18
1.3 fold over CD3 | 0.0005 µg/mL | B19

The binders below were run against T1, human GITR (Glucocorticoid-induced …) (assay: flow cytometry (MFI), antibody titration on anti-CD3-activated primary human T cells (CD25+CD4+)).
Procedure: Cells were collected and washed and then incubated at 4 C with titrations of the anti-human GITR antibodies or a human IgG1 isotype control antibody. After washing, cells were stained at 4 C with fluorochrome conjugated anti-human CD4 and anti-human CD25 antibodies to identify activated CD4+ effector T cells and with fluorochrome-conjugated anti-huIgG to detect bound anti-human GITR antibodies. The mean fluorescence intensity (MFI) of the anti-human GITR antibodies bound to CD25+CD4+ cells was determined by flow cytometry. The EC50s of the binding curves were calculated using GraphPad Prism® software.

EC50 | Binder
0.145 µg/mL | B1
0.802 µg/mL | B2
0.318 µg/mL | B3
0.102 µg/mL | B4
0.164 µg/mL | B5
0.038 µg/mL | B6
0.03 µg/mL | B7
0.026 µg/mL | B8
0.048 µg/mL | B9
0.053 µg/mL | B10
0.051 µg/mL | B11
0.035 µg/mL | B12
0.048 µg/mL | B13
0.027 µg/mL | B14
0.033 µg/mL | B15
0.033 µg/mL | B16
0.024 µg/mL | B17
0.045 µg/mL | B18
0.051 µg/mL | B19
